{"source": "paper PMC2686732", "about": "“Both Ca^2+ and Zn^2+ are essential for S100A12 protein oligomerization and function” (BMC Biochemistry, 2009)", "binders": {"B1": {"name": "Recombinant full-length human S100A12 (natural protein, UniProt P80511 1-92, looked up)", "chain": "MTKLEEHLEGIVNIFHQYSVRKGHFDTLSKGELKQLLTKELANTIKNIKDKAVIDEIFQGLDANQDEQVDFQEFISLVAIALKAAHYHTHKE", "notes": "S100A12, human, full length; expressed from a modified pQE60 vector with a stop codon inserted so that the protein has no histidine tag; Oligomeric state (dimer, tetramer, hexamer) depends on Ca2+ and Zn2+ in the sample; [U-15N] labelled for the NMR experiments; also called apo-S100A12; Ca2+-S100A12; source: E. coli, purified (Phenyl-Sepharose, ResQ ion exchange)"}}, "key": {"[1]": {"target": "the molecule itself", "test": "native gel or EMSA; native PAGE, 7.5% gel, Tris-glycine pH 8.8, 14 ug S100A12 with 5 uM Zn"}, "[2]": {"target": "T1, Human RAGE-Fc fusion protein (human, UniProt Q15109 23-342)", "T1 construct": "RAGE (Receptor for Advanced Glycation End products), human; also called recombinant human RAGE/Fc; source: bought: R&D Systems", "T1 sequence (Q15109 23-342)": "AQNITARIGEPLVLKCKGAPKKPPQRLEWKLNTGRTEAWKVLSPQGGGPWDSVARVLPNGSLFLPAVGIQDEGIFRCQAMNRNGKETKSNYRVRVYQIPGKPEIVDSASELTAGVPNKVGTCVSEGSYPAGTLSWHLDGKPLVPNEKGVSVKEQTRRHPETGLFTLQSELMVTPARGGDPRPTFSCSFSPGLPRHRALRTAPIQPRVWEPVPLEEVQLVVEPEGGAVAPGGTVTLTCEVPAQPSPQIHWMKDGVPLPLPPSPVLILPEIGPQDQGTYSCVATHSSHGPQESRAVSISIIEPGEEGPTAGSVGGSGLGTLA", "test": "SPR; S100A12 immobilised (2,933 RU) by amine coupling on CM5; RAGE/Fc (125 nM) injected 3 min at 30 ul/min; HBS-P buffer with 1 mM Ca2+ and 20 uM Zn2+; 1:1 Langmuir model", "details": "both partners purified"}, "[3]": {"target": "the molecule itself", "test": "native gel or EMSA; native PAGE, 7.5% gel, Tris-glycine pH 8.8, 14 ug S100A12 in 2 mM Ca"}, "[4]": {"target": "the molecule itself", "test": "SEC; Superdex 200, 50 mM Tris-HCl pH 7.5, 200 mM NaCl, 20 C, 1 mg/ml injected; no ions added"}, "[5]": {"target": "the molecule itself", "test": "native gel or EMSA; native PAGE, S100A12 with zinc and calcium plus TPEN (zinc chelator) or EDTA (divalent ion chelator)"}, "[6]": {"target": "the molecule itself", "test": "native gel or EMSA; native PAGE, S100A12 in the presence of both Ca and Zn (also with the copper I chelator BCS)"}}, "data": [{"binder": "B1", "values": [{"measurement": "stoichiometry N", "setting": "[1]", "value": "~4"}, {"measurement": "Kd", "setting": "[2]", "value": 4.6, "unit": "nM"}, {"measurement": "koff", "setting": "[2]", "value": 0.00032, "unit": "s⁻¹"}, {"measurement": "kon", "setting": "[2]", "value": 68000, "unit": "M⁻¹ s⁻¹"}, {"measurement": "stoichiometry N", "setting": "[3]", "value": "~6"}, {"measurement": "stoichiometry N", "setting": "[4]", "value": 4}, {"measurement": "stoichiometry N", "setting": "[5]", "value": 2}, {"measurement": "stoichiometry N", "setting": "[6]", "value": 6}]}]}
